Where two headings read alike, the source gives them in different places.
Columns and labels:
[1] = biological target: SusF, purified recombinant (untagged) (Legionella pneumophila (Philadelphia-1 Lp01)) (UniProt Q5ZSL2); assay: SPR
[2] = biological target: SusF, purified recombinant (untagged) (Legionella pneumophila (Philadelphia-1 Lp01)) (UniProt Q5ZSL2); assay: SPR; remark: listed apart in the source
[3] = biological target: SusF co-expressed with SidI (Legionella pneumophila (Philadelphia-1 Lp01)); assay: SEC

“His6-SidI (from UniProt Q5ZSL3 1-942) (natural protein)” gave a Kd [1] of 0.89 nM, a koff [1] of 0.00019 s⁻¹ and a kon [1] of 220000 M⁻¹ s⁻¹. The Kd [2] was 3.1 nM, the koff,1 (two-state model, first step) [2] was 0.00051 s⁻¹ and the koff,2 (two-state model, second step) [2] was 0.00045 s⁻¹. The kon,1 (two-state model, first step) [2] was 27000 M⁻¹ s⁻¹ and the kon,2 (two-state model, second step) [2] was 0.0023 s⁻¹.
“SidI co-expressed with SusF (natural protein)” gave a stoichiometry N [3] of 1.

Source: paper doi:10.1101/845313
